Measured values reported in the supplement of paper PMC12783771.
± gives the standard deviation of the averaged measurements.

B1: library; numbered along this chain (parent)
chain: MNIQIGELAKRTACPVVTIRFYEQEGLLPPPGRSRGNFRLYGEEHVERLQFIRHCRSLDMPLSDVRTLLSYRKRPDQDCGEVNMLLDEHIRQVESRIGALLELKHHLVELREACSGARPAQSCGILQGLSDCVCDTRGTTAHPSD

What was measured:
[1] = variants of: B1; experiment: sfGFP reporter fluorescence (15 h) (µM FITC); higher = higher leak; conditions: library round: Round 0; ligand: none
Outline: (§1)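 Linear PbrR templates were made by PCR, normalized to 5 nM with an Echo, and expressed in BL21 Star (DE3) PANOx-SP extract with the pPbrR-sfGFP reporter plasmid and 30 μg/mL GamS. Echo-assembled 1 μL reactions held 1 µM lead chloride, 30 µM zinc acetate or no metal and were incubated 15 hr at 30 °C. Endpoint sfGFP fluorescence was read on a Synergy Neo2 and expressed as µM FITC using standard curves. Up to three biological replicates were run.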

[2] = variants of: B1; experiment: sfGFP reporter fluorescence (15 h) (µM FITC); higher = stronger transcriptional activation; conditions: library round: Round 0
Outline: as §1

| Variant | sfGFP reporter fluorescence [1] | sfGFP reporter fluorescence ([2]; ligand: 1 µM Pb) | sfGFP reporter fluorescence ([2]; ligand: 30 µM Zn) |
| --- | --- | --- | --- |
| C114N | 0.0583 ± 0.0021 | 0.0579 ± 0.0015 | 0.0546 ± 0.0015 |
| C114H | 0.0581 ± 0.0023 | 0.0586 | 0.0563 ± 0.0034 |
| C114A | 0.05607 ± 0.00052 | 0.0559 ± 0.0013 | 0.0542 |
| C114M | 0.05937 ± 0.00052 | 0.0603 ± 0.0013 | 0.0616 ± 0.0015 |
| C114F | 0.0572 ± 0.0015 | 0.0577 ± 0.00078 | 0.053 ± 0.0013 |
| C114R | 0.0594 ± 0.001 | 0.06029 ± 0.00026 | 0.0564 ± 0.0015 |
| C114I | 0.05717 ± 0.00052 | 0.0942 ± 0.0015 | 0.863 ± 0.012 |
| C114E | 0.05699 ± 0.00026 | 0.0579 ± 0.001 | 0.0533 ± 0.0023 |
| C114D | 0.0585 ± 0.00078 | 0.0588 ± 0.0018 | 0.0564 ± 0.0036 |
| C114V | 0.0566 ± 0.00078 | 0.0555 ± 0.00078 | 0.05186 ± 0.00026 |
| C114T | 0.0583 ± 0.0015 | 0.05864 ± 0.00052 | 0.0544 ± 0.0039 |
| C114P | 0.0552 ± 0.0013 | 0.0563 ± 0.0013 | 0.05204 ± 0.00052 |
| C114L | 0.0561 | 0.0583 ± 0.0015 | 0.0531 ± 0.0015 |
| C114W | 0.0586 ± 0.001 | 0.0592 ± 0.0013 | 0.05241 ± 0.00052 |
| C114Y | 0.0585 ± 0.0018 | 0.0586 | 0.0544 ± 0.0013 |
| C114Q | 0.0568 ± 0.001 | 0.05864 ± 0.00052 | 0.0533 ± 0.0018 |
| C114G | 0.052 ± 0.0015 | 0.0541 ± 0.00078 | 0.05 ± 0.00078 |
| C114K | 0.0583 ± 0.0031 | 0.0586 ± 0.001 | 0.0563 ± 0.0029 |
| C114S | 0.05754 ± 0.00052 | 0.05809 ± 0.00026 | 0.0544 ± 0.0018 |
| R111Y | 0.0566 ± 0.0023 | 0.0651 ± 0.00078 | 0.28 ± 0.029 |
| R111D | 0.0585 ± 0.0013 | 0.06707 ± 0.00052 | 0.215 ± 0.0029 |
| R111C | 0.0572 ± 0.0021 | 0.077 ± 0.0042 | 0.157 ± 0.0054 |

| Variant | sfGFP reporter fluorescence [1] | sfGFP reporter fluorescence ([2]; ligand: 1 µM Pb) | sfGFP reporter fluorescence ([2]; ligand: 30 µM Zn) |
| --- | --- | --- | --- |
| R111I | 0.0544 ± 0.00078 | 0.0662 ± 0.0013 | 0.288 ± 0.0036 |
| R111A | 0.0634 ± 0.0026 | 0.09932 ± 0.00052 | 1.17 ± 0.021 |
| R111L | 0.0552 ± 0.0013 | 0.06469 ± 0.00026 | 0.2 ± 0.016 |
| R111K | 0.0575 ± 0.0015 | 0.06194 ± 0.00052 | 0.149 ± 0.02 |
| R111F | 0.0581 ± 0.00078 | 0.06927 ± 0.00052 | 0.328 ± 0.019 |
| R111Q | 0.0572 ± 0.001 | 0.0618 ± 0.0013 | 0.275 ± 0.0083 |
| R111S | 0.06102 ± 0.00026 | 0.0951 ± 0.0023 | 1.14 ± 0.11 |
| R111P | 0.0577 ± 0.0018 | 0.05846 ± 0.00026 | 0.0542 ± 0.0015 |
| R111N | 0.0583 | 0.0684 ± 0.00078 | 0.391 ± 0.032 |
| R111H | 0.05791 ± 0.00052 | 0.0652 ± 0.0026 | 0.2344 ± 0.0013 |
| R111T | 0.0599 ± 0.00078 | 0.07752 ± 0.00026 | 0.535 ± 0.081 |
| R111G | 0.0535 | 0.0623 ± 0.001 | 0.343 ± 0.0083 |
| R111W | 0.05937 ± 0.00052 | 0.0632 ± 0.0018 | 0.189 ± 0.0042 |
| R111V | 0.0586 ± 0.001 | 0.0744 ± 0.0021 | 0.483 ± 0.0073 |
| R111M | 0.05772 ± 0.00026 | 0.0623 ± 0.0026 | 0.243 ± 0.001 |
| R111E | 0.05864 ± 0.00052 | 0.0684 ± 0.00078 | 0.267 ± 0.013 |
| I125R | 0.0608 ± 0.0026 | 0.0603 ± 0.0013 | 0.0575 ± 0.0021 |
| I125T | 0.0585 ± 0.0023 | 0.0566 ± 0.0013 | 0.06414 ± 0.00052 |
| I125A | 0.0572 ± 0.0042 | 0.0553 ± 0.0021 | 0.0585 ± 0.0023 |
| I125Q | 0.0588 ± 0.00078 | 0.0597 ± 0.0015 | 0.055 ± 0.0021 |
| I125D | 0.0585 ± 0.0013 | 0.0583 ± 0.0031 | 0.0559 ± 0.0039 |
| I125N | 0.0581 ± 0.00078 | 0.0581 ± 0.00078 | 0.055 ± 0.0015 |

| Variant | sfGFP reporter fluorescence [1] | sfGFP reporter fluorescence ([2]; ligand: 1 µM Pb) | sfGFP reporter fluorescence ([2]; ligand: 30 µM Zn) |
| --- | --- | --- | --- |
| I125M | 0.05992 ± 0.00026 | 0.0579 ± 0.001 | 0.05571 ± 0.00052 |
| I125G | 0.0546 | 0.0559 ± 0.00078 | 0.0504 ± 0.0029 |
| I125P | 0.0559 ± 0.00078 | 0.05791 ± 0.00052 | 0.05351 ± 0.00052 |
| I125W | 0.0588 ± 0.0018 | 0.0596 ± 0.0013 | 0.0564 ± 0.0026 |
| I125E | 0.0597 ± 0.0026 | 0.0581 ± 0.00078 | 0.0557 ± 0.0031 |
| I125Y | 0.059 ± 0.0021 | 0.0588 ± 0.0023 | 0.0552 ± 0.0029 |
| I125S | 0.0597 ± 0.0021 | 0.0574 ± 0.0013 | 0.0568 ± 0.0021 |
| I125F | 0.0553 ± 0.001 | 0.0579 ± 0.0021 | 0.05259 ± 0.00026 |
| I125L | 0.055 ± 0.001 | 0.05717 ± 0.00052 | 0.05552 ± 0.00026 |
| I125V | 0.0583 | 0.0627 | 0.183 ± 0.0036 |
| I125H | 0.0601 ± 0.0031 | 0.06011 ± 0.00052 | 0.057 ± 0.0023 |
| I125C | 0.0596 ± 0.00078 | 0.05901 ± 0.00052 | 0.0568 ± 0.0047 |
| I125K | 0.0599 ± 0.0029 | 0.05864 ± 0.00052 | 0.0564 ± 0.0031 |
| L110C | 0.05754 ± 0.00052 | 0.0577 ± 0.00078 | 0.0766 ± 0.0042 |
| L110A | 0.0727 ± 0.0013 | 0.0698 ± 0.0018 | 0.0729 ± 0.0026 |
| L110R | 0.0579 ± 0.0015 | 0.0596 ± 0.00078 | 0.06615 ± 0.00026 |
| L110W | 0.057 ± 0.0018 | 0.0572 ± 0.0015 | 0.0537 ± 0.0023 |
| L110N | 0.0579 | 0.05791 ± 0.00052 | 0.0627 |
| L110M | 0.0568 ± 0.0015 | 0.05644 ± 0.00052 | 0.0574 ± 0.0023 |
| L110D | 0.0575 ± 0.0015 | 0.0586 | 0.0574 ± 0.00078 |
| L110E | 0.059 ± 0.001 | 0.0614 ± 0.0013 | 0.0579 ± 0.001 |
| L110S | 0.05626 ± 0.00026 | 0.05772 ± 0.00026 | 0.0614 ± 0.0018 |

| Variant | sfGFP reporter fluorescence [1] | sfGFP reporter fluorescence ([2]; ligand: 1 µM Pb) | sfGFP reporter fluorescence ([2]; ligand: 30 µM Zn) |
| --- | --- | --- | --- |
| L110H | 0.0638 ± 0.0021 | 0.081 ± 0.0042 | 2.52 ± 0.29 |
| L110F | 0.05626 ± 0.00026 | 0.0599 ± 0.0018 | 0.0619 ± 0.0021 |
| L110I | 0.05571 ± 0.00052 | 0.0579 ± 0.0015 | 0.542 ± 0.036 |
| L110K | 0.05772 ± 0.00026 | 0.05864 ± 0.00052 | 0.0792 ± 0.0021 |
| L110G | 0.05498 ± 0.00052 | 0.0548 ± 0.00078 | 0.0531 ± 0.0031 |
| L110P | 0.0594 ± 0.0015 | 0.0581 ± 0.0018 | 0.0575 ± 0.0015 |
| L110V | 0.0601 ± 0.0021 | 0.06634 ± 0.00052 | 0.502 ± 0.065 |
| L110Q | 0.0555 ± 0.0013 | 0.057 ± 0.00078 | 0.05589 ± 0.00026 |
| L110Y | 0.0581 ± 0.00078 | 0.0597 | 0.0656 ± 0.001 |
| L110T | 0.05736 ± 0.00026 | 0.0601 ± 0.001 | 0.158 ± 0.0029 |
| G116A | 0.0597 | 0.0581 ± 0.0023 | 0.18 ± 0.063 |
| R118A | 0.0676 ± 0.0018 | 0.0665 ± 0.00078 | 0.168 ± 0.026 |
| L126A | 0.0685 ± 0.001 | 0.0682 ± 0.0026 | 0.0691 ± 0.0039 |
| Q121A | 0.0645 ± 0.001 | 0.0944 ± 0.0023 | 1.16 ± 0.19 |
| E112T | 0.0605 | 0.0804 ± 0.0029 | 0.857 ± 0.06 |
| E112S | 0.0673 ± 0.00078 | 0.1083 ± 0.00078 | 1.9 ± 0.14 |
| E112R | 0.0658 ± 0.00078 | 0.107 ± 0.0088 | 1.53 ± 0.029 |
| E112V | 0.0572 ± 0.0015 | 0.06597 ± 0.00052 | 0.343 ± 0.0078 |
| E112D | 0.0612 ± 0.0021 | 0.0722 ± 0.0026 | 0.565 ± 0.043 |
| E112Q | 0.0627 ± 0.0015 | 0.0909 ± 0.0078 | 1.27 ± 0.082 |
| E112M | 0.06212 ± 0.00026 | 0.0938 ± 0.0093 | 0.9465 ± 0.007 |
| E112C | 0.0616 ± 0.001 | 0.0759 ± 0.0036 | 0.1508 ± 0.0013 |
